Values quoted from earlier work as cited in paper PMC13242166.

Molecular target: TRH1 receptor (Homo sapiens) (UniProt P34981)
Experiment: radioligand binding

UniProt P34981, sequence (P34981 whole entry): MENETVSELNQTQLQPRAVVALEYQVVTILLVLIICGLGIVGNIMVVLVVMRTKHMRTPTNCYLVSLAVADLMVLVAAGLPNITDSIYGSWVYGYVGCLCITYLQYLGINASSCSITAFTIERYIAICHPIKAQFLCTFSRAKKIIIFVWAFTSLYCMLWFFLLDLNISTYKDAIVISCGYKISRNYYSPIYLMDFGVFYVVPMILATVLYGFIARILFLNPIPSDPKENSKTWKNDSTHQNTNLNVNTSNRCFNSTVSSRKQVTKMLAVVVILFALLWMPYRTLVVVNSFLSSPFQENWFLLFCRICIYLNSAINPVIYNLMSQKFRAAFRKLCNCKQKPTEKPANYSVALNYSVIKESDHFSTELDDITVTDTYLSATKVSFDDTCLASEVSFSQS

Kd: 13 nM
Substance: TRH (from UniProt P20396)
